For this series, the target named is T1, IRF3 wild-type (UniProt Q14653 Q14653:1-427).
T1 sequence: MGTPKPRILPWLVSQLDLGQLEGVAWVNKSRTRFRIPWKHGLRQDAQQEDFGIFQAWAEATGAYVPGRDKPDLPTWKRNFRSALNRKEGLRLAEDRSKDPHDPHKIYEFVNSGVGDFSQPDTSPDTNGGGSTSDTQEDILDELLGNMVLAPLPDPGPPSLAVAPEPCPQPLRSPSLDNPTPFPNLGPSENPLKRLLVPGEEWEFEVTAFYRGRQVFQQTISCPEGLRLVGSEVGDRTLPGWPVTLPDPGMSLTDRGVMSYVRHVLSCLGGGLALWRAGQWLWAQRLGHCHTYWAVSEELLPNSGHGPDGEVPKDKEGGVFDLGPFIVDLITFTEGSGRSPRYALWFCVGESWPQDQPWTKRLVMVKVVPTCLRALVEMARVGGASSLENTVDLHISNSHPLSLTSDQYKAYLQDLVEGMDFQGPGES
Briefly: EMSA; 2.5 nM probe, 10 mM Tris pH 7.5, 50 mM NaCl, 2 mM DTT, room temperature 45 min; cold probe competition. As to conditions: tags: Flag, expressed in HEK293T; label: 32P. How it is done: Electrophoresis Mobility Shift Assay (EMSA). Flag-IRF3-WT and Flag-IRF3-N85D were purified from HEK293T cells. Binding reactions were carried out in 20 μl volumes containing: 2.5 nM P32 labeled DNA probe targeting IFN-β promoter (forward: […] (SEQ ID NO: 41); reverse: […]) (SEQ ID NO: 42); 10 mM Tris pH 7.5; 50 mM NaCl; 2 mM DTT and indicated purified Flag-IRF3-WT or Flag-IRF3-N85D. Unlabeled probe (cold probe) was used for competition assay. Reactions were incubated at room temperature for 45 min, and resolved in 6% polyacrylamide gels (29:1 crosslinking) with 0.5×TBE running buffer at […] on ice until the loading dye front reached the bottom of the gel. Gels were dried and analyzed using phosphorimaging instrumentation.

B1: IFN-beta promoter probe (dsDNA)
DNA 1: GCACCGCTAACCGAAACCGAAACTGTGC
DNA 2: GCACAGTTTCGGTTTCGGTTAGCGGTGC
For B1, the binding result is reported as “binds”.
